# B1: α' subunit: soy β-conglycinin α′ subunit purified by Metal Affinity Chromatography under denaturant conditions (protein, UniProt P11827 63-621, looked up)
# Beta-conglycinin alpha' …: VEEEEECEEGQIPRPRPQHPERERQQHGEKEEDEGEQPRPFPFPRPRQPHQEEEHEQKEEHEWHRKEEKHGGKGSEEEQDEREHPRPHQPHQKEEEKHEWQHKQEKHQGKESEEEEEDQDEDEEQDKESQESEGSESQREPRRHKNKNPFHFNSKRFQTLFKNQYGHVRVLQRFNKRSQQLQNLRDYRILEFNSKPNTLLLPHHADADYLIVILNGTAILTLVNNDDRDSYNLQSGDALRVPAGTTYYVVNPDNDENLRMITLAIPVNKPGRFESFFLSSTQAQQSYLQGFSKNILEASYDTKFEEINKVLFGREEGQQQGEERLQESVIVEISKKQIRELSKHAKSSSRKTISSEDKPFNLRSRDPIYSNKLGKLFEITPEKNPQLRDLDVFLSVVDMNEGALFLPHFNSKAIVVLVINEGEANIELVGIKEQQQRQQQEEQPLEVRKYRAELSEQDIFVIPAGYPVVVNATSDLNFFAFGINAENNQRNFLAGSKDNVISQIPSQVQELAFPGSAKDIENLIKSQSESYFVDAQPQQKEEGNKGRKGPLSSILRAFY
# Key:
# [1] = tested on: rats fed with hypercholesterolemic diet; assay: Total cholesterol and triglycerids plasma levels in rats fed with hypercholesterolemic diet, 28 day oral treatment; type: in vivo, rat; settings: for Total cholesterol / Total triglycerids: plasma, male CD rats, hypercholesterolemic diet, oral 28 days, after 16 hour fasting
# Method: Male rats CD SPF/VAF, weighing 75-100 g, were used. The animals were housed in makrolon cages (4-5 animals per cage) in environment with automatic control of light (12 hour light/12 hour darkness cycles), temperature (21±1° C.) and humidity (60±5%).
# After 7 day housing, the animals were randomly divided into seven groups of 20 rats each (Table 2). During 28 days, one group was fed with normal diet (cod. 014RF25C; Mucedola S.r.l., Settimo Milanese, MI, Italy), whereas the others were fed with hypercholesterolemic diet consisting of 1% cholesterol, 0.5% cholic acid and 25% hydrogenated coconut oil (batch 332000, preparation Jan. 9, 2000; Laboratorio Dottori Piccioni, Gessate, MI, Italy), with access to water ad libitum. The diet was given daily (40 g, 09.00 a.m.) and the unconsumed amount was weighed. Treatment was carried out as follows.
# Total cholesterol and triglycerids plasma levels were measured at the end of the 28 day treatment and after 16 hour fasting. […] After centrifugation for 15 min at 4° C. at 3000 rpm, plasma was recovered, frozen and stored at −20° C. until measurements.
# Total cholesterol and triglycerids plasma concentrations (reported in Table 2) were determined according to conventional enzymatic assays.
# LDL receptor = settings: hepatic cell line; Lovati et al. 1992, 1996; Manzoni et al. 1998; cited from earlier work
Molecule,Total cholesterol ([1]; dose 200 mg/kg) [mg/dL],Total triglycerids ([1]; dose 200 mg/kg) [mg/dL],"effect on cholesterol and total triglycerids plasma levels (in words) ([1]; administration to rats, table 2)",Total cholesterol ([1]; dose 10 mg/kg) [mg/dL],Total triglycerids ([1]; dose 10 mg/kg) [mg/dL],LDL receptor activity (in words) (LDL receptor)
"CCOC(=O)C(C)(C)Oc1ccc(Cl)cc1 [clofibrate, reference compound]",191.2 ± 8.0,139.1 ± 5.8,,,,
B1,,,remarkably decreasing,182.2 ± 12.1,150.1 ± 9.8,capable of activating LDL receptor
